According to US20220380442A1 (published 2022):

T1: Puumala virus (PUUV) glycoproteins Gn and Gc displayed on Expi293F cells (full-length M segment, plasmid … (Puumala virus))
T1 chain 1: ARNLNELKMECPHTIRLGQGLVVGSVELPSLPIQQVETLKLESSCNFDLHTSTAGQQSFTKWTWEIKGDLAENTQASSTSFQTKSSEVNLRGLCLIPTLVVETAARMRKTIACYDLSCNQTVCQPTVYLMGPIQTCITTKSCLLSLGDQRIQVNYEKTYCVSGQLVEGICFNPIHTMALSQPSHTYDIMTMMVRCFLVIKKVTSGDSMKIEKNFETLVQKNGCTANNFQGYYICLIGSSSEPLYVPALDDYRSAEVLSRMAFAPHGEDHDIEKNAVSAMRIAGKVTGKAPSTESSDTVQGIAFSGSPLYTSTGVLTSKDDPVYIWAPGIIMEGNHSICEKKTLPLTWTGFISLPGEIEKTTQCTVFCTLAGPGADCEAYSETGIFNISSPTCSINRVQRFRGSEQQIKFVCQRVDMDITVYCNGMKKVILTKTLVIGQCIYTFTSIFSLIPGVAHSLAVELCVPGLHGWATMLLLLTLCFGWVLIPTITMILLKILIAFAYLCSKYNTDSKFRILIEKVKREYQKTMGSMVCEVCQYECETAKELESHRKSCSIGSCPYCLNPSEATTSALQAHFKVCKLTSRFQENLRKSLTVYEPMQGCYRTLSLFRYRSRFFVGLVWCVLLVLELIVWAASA
T1 chain 2: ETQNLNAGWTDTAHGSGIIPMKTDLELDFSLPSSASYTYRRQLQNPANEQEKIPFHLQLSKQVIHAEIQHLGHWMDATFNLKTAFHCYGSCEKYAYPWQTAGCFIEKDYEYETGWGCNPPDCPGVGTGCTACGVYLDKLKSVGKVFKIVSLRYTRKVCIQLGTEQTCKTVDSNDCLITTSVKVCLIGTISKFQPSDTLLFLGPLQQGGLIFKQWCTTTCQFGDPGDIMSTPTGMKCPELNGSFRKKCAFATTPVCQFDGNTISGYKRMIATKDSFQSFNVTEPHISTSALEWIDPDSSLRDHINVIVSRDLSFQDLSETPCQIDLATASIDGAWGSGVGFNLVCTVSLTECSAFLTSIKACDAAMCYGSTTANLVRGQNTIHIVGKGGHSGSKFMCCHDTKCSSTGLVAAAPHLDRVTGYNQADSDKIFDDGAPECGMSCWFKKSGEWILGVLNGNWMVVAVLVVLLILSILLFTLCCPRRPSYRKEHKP


Columns and labels:
[1] = molecular target: Sin Nombre virus (SNV) glycoproteins Gn and Gc displayed on the surface of Expi293F cells transfected with … (Sin Nombre virus); experiment: flow
[2] = molecular target: T1, Puumala virus (PUUV) glycoproteins Gn …; experiment: flow

Row | Binder | EC50 [1] | EC50 [2]
1 | ANDV-2 (antibody, V domains shown) VH: QVTLKESGPALVKPTQTLTLTCTFSGFSLSTSGMRVSWIRQPPGKALEWLARIDWDDDKFYSTSLKTRLTISKDTSKNQVVLIMTNMDPVDTATYYCARMMVGEGTFDYWGQGTLVTVSS VL: DIQMTQFPSTLSASVGDRVTITCRASQDISSLLAWYQQKPGKAPKLLIYTASNLEGGVPSRFSGSGSGTEFTLTISSLQPDDFATYYCQQYIRYWTFGQGTKVEIK | 0.011 µg/mL | 
2 | ANDV-69 (antibody, V domains shown) VH: QVHLQESGPGLVKPSETLSLTCAVSGYSISSGYCWGWIRQTPGKGLEWIGSIWHTGTTYYNPSLKSRVTISLDTSKNQFSLKLSSLTAADTAVYYCARAIYDSSGYSPFSGLDIWGQGTTVTISS VL: QSVLTQPPSVSAAPGQKVTISCSGSSSNIGNNYVSWYQQVPGTAPKLLFYDNNKRPSGIPYRFSGSKSGTSATLAITGLQTGDEADYYCGTWDSSLNLWVFGGGTKLTVL |  | 0.541 µg/mL
3 | ANDV-59 (antibody, V domains shown) VH: QVVLQESGPGLVKPSETLSLTCTVSGGSINNYYWSWIRQPPGKGLEWIGWLYYSGITTFNPSLKSRVTISIDTSKNQVSLNLRSVTAADTAVYYCARVQGSDSSGYYHLKSDWFDPWGQGIPVTVSS VL: QSVLTQPPSVSAAPGQTVTISCSGSSSNIRHNFVSWYQQLPGTAPKLVIYENNKRPSGIPDRFSGSKSGTSATLGITGLQTGDEADYYCGTWDSSLSAPHWVFGGGTRLTVL | 0.0093 µg/mL | 0.123 µg/mL
4 | ANDV-5 (antibody, V domains shown) VH: QVQLLQSGAEVKKPGSSVRVSCQSSGDIYNYYGISWVRQAPGQGLEWMGGIIPVYGRPNYVQKFRGRVTFTVDKSTSTAYMELSTLRADDTAVYYCARDTARSHYFGSGNDYGMDVWGQGTTVIVSS VL: DIVMTQSPLSLPVTPGEPASISCRSSQSLLHSNGFNFVDWYLQKPGQSPQLLIYLGSTRASGVPDRFSGSGSGTDFTLEISRVEAEDVGVYYCMQALQFPRTFGQGTKLDIK |  | 0.148 µg/mL
